Assay results reported in PMC8936114.

Biological target: NSP12 (RNA-dependent RNA polymerase) (SARS-CoV-2, UniProt P0DTD1 4393-5324)
Assay: filter binding; 20 mM Tris, 200 mM KCl, room temperature, 1 h; pH not stated; […]
Conditions: protein: commercial; tags: His; label: 3' biotin; stem loops

B1: Scov2_7431_7555_RNA (structured_RNA)
RNA: GGGCGAAAACGCCCCAUUUUAUUAUGUAUGGAAAAGUUAUGUGCAUGUUGUAGACGGUUGUAAUUCAUCAACUUGUAUGAUGUGUUACAAACGUAAUAGAGCAACAAGAGUCGAAUGUACAACUAUUGUUAAUGGUGUU
modifications: 3' biotinylation (Pierce RNA 3' End Biotinylation Kit)
Work on B1 yielded a Kd of 17 nM.
